Biological target: T1, GSThPif1ΔN (Homo sapiens, UniProt Q9H611 167-641)
T1 sequence: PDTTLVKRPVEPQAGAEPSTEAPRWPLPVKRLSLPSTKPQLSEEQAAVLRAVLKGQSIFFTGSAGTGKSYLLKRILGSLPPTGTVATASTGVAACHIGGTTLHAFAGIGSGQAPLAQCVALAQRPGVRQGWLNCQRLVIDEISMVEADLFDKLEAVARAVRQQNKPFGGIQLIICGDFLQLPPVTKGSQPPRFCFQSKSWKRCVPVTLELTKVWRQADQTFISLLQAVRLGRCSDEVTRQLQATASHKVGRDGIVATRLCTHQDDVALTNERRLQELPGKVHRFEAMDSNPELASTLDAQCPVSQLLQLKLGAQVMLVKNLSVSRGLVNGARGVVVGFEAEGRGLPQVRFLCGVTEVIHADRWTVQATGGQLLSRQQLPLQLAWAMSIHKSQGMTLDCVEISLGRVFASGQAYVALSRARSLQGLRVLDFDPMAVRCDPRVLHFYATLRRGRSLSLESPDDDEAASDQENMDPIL
Assay: EMSA

B1: tel18 (ssDNA)
DNA: TTAGGGTTAGGGTTAGGG
binding result: binds

— paper PMC1390689
